Data: paper PMC3332085
Like-named read-outs stand apart in the source and are kept apart here.

Experiments:
Experiment in all cases: SAXS
[1] = molecular target: wild type yeast frataxin (Yfh1wt; residues 52-174) (S. cerevisiae) (UniProt Q07540)
[2] = molecular target: wild type yeast frataxin (Yfh1wt; residues 52-174) (S. cerevisiae) (UniProt Q07540); remark: listed apart in the source
[3] = molecular target: wild type yeast frataxin (Yfh1wt; residues 52-174) (S. cerevisiae) (UniProt Q07540); remark: listed apart in the source

Substance “wild type yeast frataxin (Yfh1wt; residues 52-174) (from UniProt Q07540 52-174) (natural protein)” has a distribution, 42-mer [1] of 11%, a distribution, hexamer [1] of 6% and a distribution, monomer [1] of 26%. The distribution, trimer [1] was 57%, the distribution, hexamer [2] was 9% and the distribution, monomer [2] was 67%. The distribution, trimer [2] was 24%, the stoichiometry N [2] was 2 and the distribution, hexamer [3] was 13%. For the same substance, the distribution, monomer [3] was 54% and the distribution, trimer [3] was 33%.
